Test results reported in patent US20050282743A1, “Molecular interactions in cells” (Arbor Vita Corporation, priority 2001, published 2005).
Ends that are not written are not given here. * marks the point of attachment. Biotin = O=C1N[C@H]2[C@H](CS[C@H]2CCCCC(=O)*)N1

Legend:
Assay in all cases: G' assay (10 uM PL peptide), results of TABLE 7 and TABLE 12
Assay type in all cases: binding
[1] = target: T1, PDZ protein (GST-PDZ fusion) (Homo sapiens, UniProt Q76G19); conditions: PDZ LU1, PDZ Domain 1
T1 construct: made in house; host or cells: E. coli (DH5alpha, BL21 or JM109)
T1 sequence (Q76G19 1-769): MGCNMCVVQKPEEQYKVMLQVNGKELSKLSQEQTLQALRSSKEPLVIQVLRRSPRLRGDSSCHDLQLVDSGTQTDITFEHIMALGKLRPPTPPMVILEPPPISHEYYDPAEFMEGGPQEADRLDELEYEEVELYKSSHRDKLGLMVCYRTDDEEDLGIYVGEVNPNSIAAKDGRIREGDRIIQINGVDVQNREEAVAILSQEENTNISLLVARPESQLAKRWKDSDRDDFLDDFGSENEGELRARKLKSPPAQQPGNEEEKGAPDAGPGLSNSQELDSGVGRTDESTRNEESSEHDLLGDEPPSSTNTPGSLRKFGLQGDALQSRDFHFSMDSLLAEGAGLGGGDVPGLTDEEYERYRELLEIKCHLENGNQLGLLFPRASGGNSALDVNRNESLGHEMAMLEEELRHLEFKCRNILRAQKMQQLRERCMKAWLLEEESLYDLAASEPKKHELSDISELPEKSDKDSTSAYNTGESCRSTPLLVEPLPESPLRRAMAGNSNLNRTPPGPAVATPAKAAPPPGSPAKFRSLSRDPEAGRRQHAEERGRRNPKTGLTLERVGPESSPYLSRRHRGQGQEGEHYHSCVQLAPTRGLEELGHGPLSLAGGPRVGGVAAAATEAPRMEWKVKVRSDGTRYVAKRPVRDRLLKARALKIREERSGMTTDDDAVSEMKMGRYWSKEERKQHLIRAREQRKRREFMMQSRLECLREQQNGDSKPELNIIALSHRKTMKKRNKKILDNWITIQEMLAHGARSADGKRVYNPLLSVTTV
Outline: (§1)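 Binding classes derive from A450 nm of bound biotin-tagged PL peptide. A score of 5 needs A450 above 4 in more than two repeats.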

[2] = target: T2, PDZ protein (GST-PDZ fusion) (Homo sapiens, UniProt Q8IVF5); conditions: PDZ TIAM-2, PDZ Domain 1
T2 construct: made in house; host or cells: E. coli (DH5alpha, BL21 or JM109)
T2 sequence (Q8IVF5 whole entry, the tested form may be a part): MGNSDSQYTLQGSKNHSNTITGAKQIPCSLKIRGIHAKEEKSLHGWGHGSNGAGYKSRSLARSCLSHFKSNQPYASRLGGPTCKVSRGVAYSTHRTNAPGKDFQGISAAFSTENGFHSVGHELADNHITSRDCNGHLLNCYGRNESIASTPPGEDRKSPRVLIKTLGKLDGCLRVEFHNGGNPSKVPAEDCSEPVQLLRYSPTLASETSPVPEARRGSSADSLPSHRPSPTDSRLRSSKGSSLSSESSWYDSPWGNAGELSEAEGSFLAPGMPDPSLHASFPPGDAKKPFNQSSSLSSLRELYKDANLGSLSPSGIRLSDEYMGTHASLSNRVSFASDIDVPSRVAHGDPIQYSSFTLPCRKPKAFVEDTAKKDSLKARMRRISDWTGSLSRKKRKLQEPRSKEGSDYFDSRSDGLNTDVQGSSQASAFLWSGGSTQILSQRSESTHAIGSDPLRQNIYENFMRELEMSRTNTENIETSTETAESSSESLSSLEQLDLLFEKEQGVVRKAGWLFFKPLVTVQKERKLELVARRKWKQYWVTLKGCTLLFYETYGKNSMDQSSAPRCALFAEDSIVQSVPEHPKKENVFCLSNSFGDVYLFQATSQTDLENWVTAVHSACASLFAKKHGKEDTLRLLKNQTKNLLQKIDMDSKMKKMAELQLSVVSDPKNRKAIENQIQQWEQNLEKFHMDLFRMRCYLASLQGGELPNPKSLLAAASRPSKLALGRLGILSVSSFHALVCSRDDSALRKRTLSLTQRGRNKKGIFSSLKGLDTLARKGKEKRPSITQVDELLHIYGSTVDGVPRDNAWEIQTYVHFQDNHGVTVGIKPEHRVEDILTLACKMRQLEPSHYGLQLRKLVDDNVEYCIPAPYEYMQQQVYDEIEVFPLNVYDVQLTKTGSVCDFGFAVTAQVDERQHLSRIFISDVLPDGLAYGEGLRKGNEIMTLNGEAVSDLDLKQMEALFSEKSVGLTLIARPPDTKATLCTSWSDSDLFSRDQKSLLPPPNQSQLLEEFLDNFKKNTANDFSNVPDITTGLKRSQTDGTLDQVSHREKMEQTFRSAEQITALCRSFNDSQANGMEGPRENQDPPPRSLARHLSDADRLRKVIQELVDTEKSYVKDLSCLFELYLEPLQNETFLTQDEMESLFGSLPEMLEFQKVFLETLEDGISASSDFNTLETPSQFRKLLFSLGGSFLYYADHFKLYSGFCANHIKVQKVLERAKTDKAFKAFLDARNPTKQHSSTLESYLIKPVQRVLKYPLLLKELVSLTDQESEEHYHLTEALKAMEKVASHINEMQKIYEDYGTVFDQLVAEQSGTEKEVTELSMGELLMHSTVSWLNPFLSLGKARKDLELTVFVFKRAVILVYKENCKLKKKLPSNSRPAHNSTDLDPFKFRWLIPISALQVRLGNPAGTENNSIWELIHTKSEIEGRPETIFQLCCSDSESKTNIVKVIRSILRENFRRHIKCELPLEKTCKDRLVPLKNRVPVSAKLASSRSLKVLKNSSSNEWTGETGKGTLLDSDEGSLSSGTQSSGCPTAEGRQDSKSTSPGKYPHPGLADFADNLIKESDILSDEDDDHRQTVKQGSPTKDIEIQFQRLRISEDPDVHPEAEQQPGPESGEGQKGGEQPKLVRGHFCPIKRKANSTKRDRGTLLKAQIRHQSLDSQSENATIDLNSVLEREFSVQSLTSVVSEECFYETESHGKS
Outline: as §1

[3] = target: T3, PDZ protein (GST-PDZ fusion) (Homo sapiens, UniProt Q9H6Y5); conditions: PDZ FLJ21687, PDZ Domain 1
T3 construct: made in house; host or cells: E. coli (DH5alpha, BL21 or JM109)
T3 sequence (Q9H6Y5 1-334): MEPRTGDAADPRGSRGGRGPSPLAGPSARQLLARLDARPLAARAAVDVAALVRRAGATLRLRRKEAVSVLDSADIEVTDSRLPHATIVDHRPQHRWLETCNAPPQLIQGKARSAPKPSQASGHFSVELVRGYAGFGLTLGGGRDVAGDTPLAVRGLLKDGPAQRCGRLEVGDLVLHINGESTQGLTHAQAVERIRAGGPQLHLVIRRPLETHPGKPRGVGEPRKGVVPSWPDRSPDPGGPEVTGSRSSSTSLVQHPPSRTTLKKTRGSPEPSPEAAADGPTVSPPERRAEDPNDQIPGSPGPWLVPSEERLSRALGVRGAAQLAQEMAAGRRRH
Outline: as §1

[4] = target: T4, PDZ protein (GST-PDZ fusion) (Homo sapiens, UniProt Q9NZW5); conditions: PDZ P55T, PDZ Domain 1
T4 construct: made in house; host or cells: E. coli (DH5alpha, BL21 or JM109)
T4 sequence (Q9NZW5 1-540): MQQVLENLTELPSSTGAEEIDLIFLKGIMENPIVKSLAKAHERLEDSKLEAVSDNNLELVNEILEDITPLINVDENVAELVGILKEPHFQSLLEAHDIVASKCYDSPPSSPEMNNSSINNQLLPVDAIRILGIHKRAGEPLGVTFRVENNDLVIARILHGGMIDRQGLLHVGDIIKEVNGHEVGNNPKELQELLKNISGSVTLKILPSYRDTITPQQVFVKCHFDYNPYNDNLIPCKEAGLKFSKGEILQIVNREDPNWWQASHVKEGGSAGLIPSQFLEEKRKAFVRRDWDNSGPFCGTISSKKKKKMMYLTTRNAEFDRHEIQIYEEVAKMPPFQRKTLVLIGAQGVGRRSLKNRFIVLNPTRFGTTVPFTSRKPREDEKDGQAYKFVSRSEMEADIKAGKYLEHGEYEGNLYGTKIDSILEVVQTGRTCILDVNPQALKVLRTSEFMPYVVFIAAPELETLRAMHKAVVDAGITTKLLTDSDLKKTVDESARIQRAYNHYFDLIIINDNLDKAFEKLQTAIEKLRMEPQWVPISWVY
Outline: as §1

Substance: A2AC_HUMAN (Modified) (Biotin-DFRPSFKHILFRRARRGFRQ; not fully specified)
- Classification [1]: 4 (A450 nm 3-4)

Substance: ELLQFCRTPNPALKNGQYWV (Biotin-ELLQFCRTPNPALKNGQYWV)
- Classification [2]: 3 (A450 nm 2-3)

Substance: A2AA_HUMAN (modified) (Biotin-HDFRRAFKKILARGDRKRIV; not fully specified)
- Classification [3]: 1 (A450 nm 0-1)

Substance: KTMPAAMFRLLTGQETPLYI (Biotin-KTMPAAMFRLLTGQETPLYI) [MINT-2]
- Classification [4]: 1 (A450 nm 0-1)
